Literature values as cited in article PMC11394293.

Target: s-Klotho KL1/KL2 (Homo sapiens) (UniProt Q9UEF7)
Sequence of UniProt Q9UEF7 (Q9UEF7 34-981): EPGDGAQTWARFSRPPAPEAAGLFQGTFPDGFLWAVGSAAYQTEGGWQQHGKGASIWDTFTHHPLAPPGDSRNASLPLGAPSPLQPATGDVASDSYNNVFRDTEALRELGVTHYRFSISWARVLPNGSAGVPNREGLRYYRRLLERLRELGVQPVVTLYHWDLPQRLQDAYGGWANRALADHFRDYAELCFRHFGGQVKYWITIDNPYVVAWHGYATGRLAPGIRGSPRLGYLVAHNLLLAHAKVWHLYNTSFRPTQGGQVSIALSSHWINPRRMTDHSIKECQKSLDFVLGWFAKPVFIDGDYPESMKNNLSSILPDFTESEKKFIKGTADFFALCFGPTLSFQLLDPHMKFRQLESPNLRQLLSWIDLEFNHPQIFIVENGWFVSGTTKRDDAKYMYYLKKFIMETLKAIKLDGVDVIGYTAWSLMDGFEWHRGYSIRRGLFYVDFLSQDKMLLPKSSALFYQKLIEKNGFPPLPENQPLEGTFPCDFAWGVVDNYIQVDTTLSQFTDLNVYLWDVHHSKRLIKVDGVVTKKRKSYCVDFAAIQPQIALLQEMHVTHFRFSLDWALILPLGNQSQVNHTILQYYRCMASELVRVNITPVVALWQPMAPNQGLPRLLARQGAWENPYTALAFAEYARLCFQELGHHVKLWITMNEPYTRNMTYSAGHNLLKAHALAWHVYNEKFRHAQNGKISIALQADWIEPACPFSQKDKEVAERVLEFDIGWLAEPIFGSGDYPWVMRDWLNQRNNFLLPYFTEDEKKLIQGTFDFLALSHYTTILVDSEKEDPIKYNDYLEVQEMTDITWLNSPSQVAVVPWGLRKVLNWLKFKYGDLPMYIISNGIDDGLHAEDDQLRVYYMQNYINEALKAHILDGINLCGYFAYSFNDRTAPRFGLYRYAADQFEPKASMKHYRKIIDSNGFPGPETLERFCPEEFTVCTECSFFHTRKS

Kd: 14 nM
Substance: FGF23 (from UniProt Q9GZV9)
